# In US20260240959A1, “METHODS FOR IN VIVO EDITING OF KLKB1” (INTELLIA THERAPEUTICS, INC., priority 2022, published 2026):
# In the oligonucleotide strings, read from the 5' end, every base follows the letter of its sugar. An asterisk marks phosphorothioate; unmarked linkages are phosphodiester. Other units and linkages are bracketed, terminal groups are in braces. A string of capitals states the bases alone. m = 2'-O-methyl; r = 2'-OH (RNA)
# Legend:
# plasma kallikrein = assay: Plasma kallikrein activity in cynomolgus monkeys; assay type: in vivo, cynomolgus monkey; settings: n=3, 6 mpk
# Method: (§1) Cynomolgus monkeys were treated in cohorts of n=3. This study was conducted with LNP formulations according to Example 1. […]. Animals were dosed at 1.5, 3, or 6 mg per kg doses based on total RNA cargo. Indel formation (percent editing) was measured by NGS. Total kallikrein activity and plasma kallikrein protein level were measured as described above. […]
# [1] = tested on: plasma kallikrein protein; assay: Plasma kallikrein protein level in cynomolgus monkeys; assay type: in vivo, cynomolgus monkey; settings: n=3
# Method: as §1
molecule,measurement,setting,value
G013901: cynomolgus specific KLKB1 guide RNA (SEQ ID NO: 409); dosed as LNP formulation with Cas9 mRNA (nucleic acid) guide: mG*mG*mA*rUrUrArCrArUrArUrGrGrGrArCrArCrArArGrUrUrUrUrArGrAmGmCmUmAmGmAmAmAmUmAmGmCrArArGrUrUrArArArArUrArArGrGrCrUrArGrUrCrCrGrUrUrArUrCrAmAmCmUmUmGmAmAmAmAmAmGmUmGmGmCmAmCmCmGmAmGmUmCmGmGmUmGmCmU*mU*mU*mU,"Kallikrein Activity (% of basal activity), Mean",plasma kallikrein; Day 347,2.9 % of basal activity
same,"Kallikrein Activity (% of basal activity), Mean",plasma kallikrein; Day 365,3.4 % of basal activity
same,"Plasma Kallikrein Protein Levels (% of basal level), Mean","[1]; 1.5 mpk, Day 14",28.8 % of basal level
same,"Plasma Kallikrein Protein Levels (% of basal level), Mean","[1]; 1.5 mpk, Day 28",32.7 % of basal level
same,"Plasma Kallikrein Protein Levels (% of basal level), Mean","[1]; 1.5 mpk, Day 42",31.5 % of basal level
same,"Plasma Kallikrein Protein Levels (% of basal level), Mean","[1]; 1.5 mpk, Day 56",30.1 % of basal level
same,"Plasma Kallikrein Protein Levels (% of basal level), Mean","[1]; 1.5 mpk, Day 70",29.8 % of basal level
same,"Plasma Kallikrein Protein Levels (% of basal level), Mean","[1]; 1.5 mpk, Day 84",38.7 % of basal level
same,"Plasma Kallikrein Protein Levels (% of basal level), Mean","[1]; 1.5 mpk, Day 105",47 % of basal level
same,"Plasma Kallikrein Protein Levels (% of basal level), Mean","[1]; 1.5 mpk, Day 119",31.6 % of basal level
same,"Plasma Kallikrein Protein Levels (% of basal level), Mean","[1]; 1.5 mpk, Day 147",32.1 % of basal level
same,"Plasma Kallikrein Protein Levels (% of basal level), Mean","[1]; 1.5 mpk, Day 161",35.8 % of basal level
same,"Plasma Kallikrein Protein Levels (% of basal level), Mean","[1]; 1.5 mpk, Day 180",33.8 % of basal level
same,"Plasma Kallikrein Protein Levels (% of basal level), Mean","[1]; 1.5 mpk, Day 238",27.4 % of basal level
same,"Plasma Kallikrein Protein Levels (% of basal level), Mean","[1]; 1.5 mpk, Day 252",27.9 % of basal level
same,"Plasma Kallikrein Protein Levels (% of basal level), Mean","[1]; 1.5 mpk, Day 266",28.7 % of basal level
same,"Plasma Kallikrein Protein Levels (% of basal level), Mean","[1]; 1.5 mpk, Day 280",33.7 % of basal level
same,"Plasma Kallikrein Protein Levels (% of basal level), Mean","[1]; 1.5 mpk, Day 294",30.4 % of basal level
same,"Plasma Kallikrein Protein Levels (% of basal level), Mean","[1]; 1.5 mpk, Day 308",20.6 % of basal level
same,"Plasma Kallikrein Protein Levels (% of basal level), Mean","[1]; 1.5 mpk, Day 326",29.7 % of basal level
same,"Plasma Kallikrein Protein Levels (% of basal level), Mean","[1]; 1.5 mpk, Day 333",30.9 % of basal level
same,"Plasma Kallikrein Protein Levels (% of basal level), Mean","[1]; 1.5 mpk, Day 347",26 % of basal level
same,"Plasma Kallikrein Protein Levels (% of basal level), Mean","[1]; 1.5 mpk, Day 365",22.7 % of basal level
same,"Plasma Kallikrein Protein Levels (% of basal level), Mean","[1]; 3 mpk, Day 14",27.1 % of basal level
same,"Plasma Kallikrein Protein Levels (% of basal level), Mean","[1]; 3 mpk, Day 28",16.9 % of basal level
same,"Plasma Kallikrein Protein Levels (% of basal level), Mean","[1]; 3 mpk, Day 42",16 % of basal level
same,"Plasma Kallikrein Protein Levels (% of basal level), Mean","[1]; 3 mpk, Day 56",15.4 % of basal level
same,"Plasma Kallikrein Protein Levels (% of basal level), Mean","[1]; 3 mpk, Day 70",15.4 % of basal level
same,"Plasma Kallikrein Protein Levels (% of basal level), Mean","[1]; 3 mpk, Day 84",17.1 % of basal level
same,"Plasma Kallikrein Protein Levels (% of basal level), Mean","[1]; 3 mpk, Day 105",22.3 % of basal level
same,"Plasma Kallikrein Protein Levels (% of basal level), Mean","[1]; 3 mpk, Day 119",18.1 % of basal level
same,"Plasma Kallikrein Protein Levels (% of basal level), Mean","[1]; 3 mpk, Day 147",18.3 % of basal level
same,"Plasma Kallikrein Protein Levels (% of basal level), Mean","[1]; 3 mpk, Day 161",7.5 % of basal level
same,"Plasma Kallikrein Protein Levels (% of basal level), Mean","[1]; 3 mpk, Day 180",18 % of basal level
same,"Plasma Kallikrein Protein Levels (% of basal level), Mean","[1]; 3 mpk, Day 238",16.4 % of basal level
same,"Plasma Kallikrein Protein Levels (% of basal level), Mean","[1]; 3 mpk, Day 252",15.6 % of basal level
same,"Plasma Kallikrein Protein Levels (% of basal level), Mean","[1]; 3 mpk, Day 266",21.8 % of basal level
same,"Plasma Kallikrein Protein Levels (% of basal level), Mean","[1]; 3 mpk, Day 280",24.6 % of basal level
same,"Plasma Kallikrein Protein Levels (% of basal level), Mean","[1]; 3 mpk, Day 294",24.6 % of basal level
same,"Plasma Kallikrein Protein Levels (% of basal level), Mean","[1]; 3 mpk, Day 308",27.6 % of basal level
same,"Plasma Kallikrein Protein Levels (% of basal level), Mean","[1]; 3 mpk, Day 326",23.8 % of basal level
same,"Plasma Kallikrein Protein Levels (% of basal level), Mean","[1]; 3 mpk, Day 333",25.3 % of basal level
same,"Plasma Kallikrein Protein Levels (% of basal level), Mean","[1]; 3 mpk, Day 347",22.1 % of basal level
same,"Plasma Kallikrein Protein Levels (% of basal level), Mean","[1]; 3 mpk, Day 365",11.4 % of basal level
same,"Plasma Kallikrein Protein Levels (% of basal level), Mean","[1]; 6 mpk, Day 14",13.7 % of basal level
same,"Plasma Kallikrein Protein Levels (% of basal level), Mean","[1]; 6 mpk, Day 28",6.6 % of basal level
same,"Plasma Kallikrein Protein Levels (% of basal level), Mean","[1]; 6 mpk, Day 42",6.3 % of basal level
same,"Plasma Kallikrein Protein Levels (% of basal level), Mean","[1]; 6 mpk, Day 56",5.8 % of basal level
same,"Plasma Kallikrein Protein Levels (% of basal level), Mean","[1]; 6 mpk, Day 70",5.8 % of basal level
same,"Plasma Kallikrein Protein Levels (% of basal level), Mean","[1]; 6 mpk, Day 84",6.7 % of basal level
same,"Plasma Kallikrein Protein Levels (% of basal level), Mean","[1]; 6 mpk, Day 105",7.6 % of basal level
same,"Plasma Kallikrein Protein Levels (% of basal level), Mean","[1]; 6 mpk, Day 119",6.4 % of basal level
same,"Plasma Kallikrein Protein Levels (% of basal level), Mean","[1]; 6 mpk, Day 147",6.7 % of basal level
same,"Plasma Kallikrein Protein Levels (% of basal level), Mean","[1]; 6 mpk, Day 161",7.4 % of basal level
same,"Plasma Kallikrein Protein Levels (% of basal level), Mean","[1]; 6 mpk, Day 180",2.9 % of basal level
same,"Plasma Kallikrein Protein Levels (% of basal level), Mean","[1]; 6 mpk, Day 238",3.7 % of basal level
same,"Plasma Kallikrein Protein Levels (% of basal level), Mean","[1]; 6 mpk, Day 252",3.9 % of basal level
same,"Plasma Kallikrein Protein Levels (% of basal level), Mean","[1]; 6 mpk, Day 266",3.7 % of basal level
same,"Plasma Kallikrein Protein Levels (% of basal level), Mean","[1]; 6 mpk, Day 280",6.3 % of basal level
same,"Plasma Kallikrein Protein Levels (% of basal level), Mean","[1]; 6 mpk, Day 294",7.4 % of basal level
same,"Plasma Kallikrein Protein Levels (% of basal level), Mean","[1]; 6 mpk, Day 308",6.2 % of basal level
same,"Plasma Kallikrein Protein Levels (% of basal level), Mean","[1]; 6 mpk, Day 326",8 % of basal level
same,"Plasma Kallikrein Protein Levels (% of basal level), Mean","[1]; 6 mpk, Day 333",7.8 % of basal level
same,"Plasma Kallikrein Protein Levels (% of basal level), Mean","[1]; 6 mpk, Day 347",7.3 % of basal level
same,"Plasma Kallikrein Protein Levels (% of basal level), Mean","[1]; 6 mpk, Day 365",4.3 % of basal level
